Series [1] concerns the target T1, murine lipopolysaccharide binding protein (mLBP-His6) (Mus musculus, UniProt Q61805 25-481).
T1 sequence: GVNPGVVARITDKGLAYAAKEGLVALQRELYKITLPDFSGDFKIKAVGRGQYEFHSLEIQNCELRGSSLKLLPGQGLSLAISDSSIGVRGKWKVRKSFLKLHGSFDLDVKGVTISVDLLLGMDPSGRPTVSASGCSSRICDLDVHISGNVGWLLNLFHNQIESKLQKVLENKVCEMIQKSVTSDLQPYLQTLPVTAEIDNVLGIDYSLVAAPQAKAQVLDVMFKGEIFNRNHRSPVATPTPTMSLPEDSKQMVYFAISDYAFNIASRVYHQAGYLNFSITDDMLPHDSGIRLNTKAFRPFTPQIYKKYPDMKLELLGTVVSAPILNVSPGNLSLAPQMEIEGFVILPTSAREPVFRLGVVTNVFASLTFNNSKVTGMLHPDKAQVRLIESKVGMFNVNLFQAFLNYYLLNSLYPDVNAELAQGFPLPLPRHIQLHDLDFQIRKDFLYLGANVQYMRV
Nature of the series: nitrocellulose filter binding; affinity comparable to A011, among the best binders (screen range about 200-800 nM); 140 mM NaCl, 2.7 mM KCl, 10 mM Na2HPO4, 1.76 mM KH2PO4, 2 mM MgCl2; pH not stated; 37 °C, 1 h; RNA refolded; mLBP 15-1000 nM. Particulars: protein: recombinant; tags: C-terminal His6; label: 32P; three-helix junction (predicted).

The target in series [2] is EF-Tu (Thermus thermophilus, UniProt Q5SHN6 2-406). Nature of the series: nitrocellulose filter binding; 140 mM NaCl, 2.7 mM KCl, 10 mM Na2HPO4, 1.76 mM KH2PO4, 2 mM MgCl2; pH not stated; 37 °C, 1 h; RNA refolded; mLBP 15-1000 nM. Particulars: label: 32P (internal or 5'); three-helix junction, helices P1-P4.
Series [3] has as its target T1, murine lipopolysaccharide binding …. Nature of the series: nitrocellulose filter binding; 2 mM MgCl2; 140 mM NaCl, 2.7 mM KCl, 10 mM Na2HPO4, 1.76 mM KH2PO4, 2 mM MgCl2; pH not stated; 37 °C, 1 h; RNA refolded; mLBP 15-1000 nM. Particulars: protein: recombinant; tags: C-terminal His6; label: 32P (internal or 5'); three-helix junction, helices P1-P4.
The target is the same in series [4]. Nature of the series: boundary experiment, nitrocellulose filter retention; 200 or 400 nM mLBP; no apparent effect on affinity; 140 mM NaCl, 2.7 mM KCl, 10 mM Na2HPO4, 1.76 mM KH2PO4, 2 mM MgCl2; pH not stated; 37 °C, 1 h; RNA refolded; mLBP 15-1000 nM. Particulars: protein: recombinant; tags: C-terminal His6; label: 5' 32P; P1 pairs U6-G11 with C65-A70.
The target is the same in series [5]. Put plainly: 140 mM NaCl, 2.7 mM KCl, 10 mM Na2HPO4, 1.76 mM KH2PO4, 2 mM MgCl2; pH not stated; 37 °C, 1 h; RNA refolded; mLBP 15-1000 nM. Particulars: protein: recombinant; tags: C-terminal His6; three-helix junction.

These results are taken from PMC6321028, “2′-Fluoro-Pyrimidine-Modified RNA Aptamers Specific for Lipopolysaccharide Binding Protein (LBP)”.

Sequence of EF-Tu (Q5SHN6 2-406): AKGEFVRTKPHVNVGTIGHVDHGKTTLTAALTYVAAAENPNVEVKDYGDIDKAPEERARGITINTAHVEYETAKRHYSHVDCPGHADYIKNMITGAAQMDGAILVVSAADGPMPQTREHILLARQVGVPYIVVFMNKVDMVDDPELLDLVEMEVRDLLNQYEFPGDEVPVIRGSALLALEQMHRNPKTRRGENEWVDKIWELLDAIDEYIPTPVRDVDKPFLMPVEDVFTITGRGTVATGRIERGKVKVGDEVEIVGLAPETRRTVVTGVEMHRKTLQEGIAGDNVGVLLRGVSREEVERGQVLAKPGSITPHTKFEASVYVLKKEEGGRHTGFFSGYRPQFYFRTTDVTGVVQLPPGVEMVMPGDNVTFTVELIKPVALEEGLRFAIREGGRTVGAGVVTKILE

B1: A036 (XNA)
RNA: GGGAAUUCGAGCUCGGUACCGAUAUACGGUGCCGCUUCUCUAACCGGUGGUCAUGCGGUUGGACGCUCGAACAGACUACUGCAGGCAUGCAAGCUUGG
modifications: 2'-fluoro C and U
For the molecule B1, in series [1], the binding result is on record as “binds”.

B2: A011 (XNA)
RNA: GGGAAUUCGAGCUCGGUACCGGACUGUGGAUUGUUCUGGGUGCCGCUUCUCCGAAUAUCGGACUCUCGAACUCCUGGGGACUGCAGGCAUGCAAGCUUGG
modifications: 2'-fluoro C and U (all pyrimidines); A and G ribo
On to B2, for which the binding result in series [2] is “no binding”. Also, in series [3], the Kd worked out at 267 nM.

B3: A011 1-70 (3' boundary fragment) (XNA)
RNA: GGGAAUUCGAGCUCGGUACCGGACUGUGGAUUGUUCUGGGUGCCGCUUCUCCGAAUAUCGGACUCUCGAA
modifications: 2'-fluoro C and U
Consider B3, for which the binding result in series [4] is listed as “binds”.

B4: A011 del 76-100 (XNA)
RNA: GGGAAUUCGAGCUCGGUACCGGACUGUGGAUUGUUCUGGGUGCCGCUUCUCCGAAUAUCGGACUCUCGAACUCCU
modifications: 2'-fluoro C and U
With B4, the binding signal in series [5] was ~5 fold reduction in affinity vs A011.
